Test results from US20240181068A1, “SELECTIVE NEUTRAL PH INHIBITOR OF CATHEPSIN B” (The Regents of the University of California, priority 2021, published 2024).
Peptide text beside a SMILES is read from it. * marks the point of attachment. AOMK = acyloxymethyl ketone warhead replacing the C-terminal carboxyl; AMC = Cc1cc(=O)oc2cc(N*)ccc12; Cbz = O=C(OCc1ccccc1)*

Legend:
[1] = molecular target: Recombinant human cathepsin B (R&D #953-CY-010) (human) (UniProt P07858); assay: cell-based or functional assay
[2] = molecular target: Recombinant human cathepsin B (R&D #953-CY-010) (human) (UniProt P07858); assay: inactivation kinetics, fluorogenic cathepsin B assay with Z-Phe-Arg-AMC, pH 7.2
[3] = molecular target: Recombinant human cathepsin B (R&D #953-CY-010) (human) (UniProt P07858); assay: inactivation kinetics, fluorogenic cathepsin B assay with Z-Phe-Arg-AMC, pH 4.6
[4] = molecular target: Recombinant human cathepsin B (R&D #953-CY-010) (human) (UniProt P07858); assay: ratio of KI values, fluorogenic cathepsin B assay
[5] = molecular target: T1, cathepsin V (Homo sapiens, UniProt O60911); assay: Specificity of peptide-AMC substrates: cathepsin V; type: biochemical
T1 construct: purchased R&D Systems 1080-CY-010

[6] = molecular target: T2, cathepsin L (Homo sapiens, UniProt P07711); assay: Specificity of peptide-AMC substrates: cathepsin L; type: biochemical
T2 construct: purchased R&D Systems 952-CY-010

[7] = molecular target: T3, cathepsin B (Homo sapiens, UniProt P07858); assay: pH profile of cathepsin B activity with peptide-AMC substrates; type: biochemical; conditions: substrate 60 μM
T3 construct: purchased R&D Systems 953-CY-010
Experimental: Cathepsin B activity assayed by fluorogenic peptide substrates. Proteolytic assays of cathepsin B were conducted with Z-Arg-Lys-AMC and Z-Gly-Lys-AMC substrates in 50 mM citrate phosphate at pH 7.2 or pH 4.6, 1 mM EDTA, 100 mM NaCl, and 5 mM DTT. Assays with Z-Phe-Arg-AMC substrate were conducted under identical conditions and included 0.01% Tween20. Assays were performed in 384 well plates at 25° C. in a total volume of 30 μL. Fluorescence was quantified by a Biotek Synergy HTX microplate plate reader with excitation 360 nm, emission 460 nm, gain 50, top optics and read height 1 mm. Proteolytic activity is reported as relative fluorescent units per sec (RFU/sec), and was calculated using the highest slope recorded for 10 consecutive readings. Fluorescent readings were taken in 46 sec intervals and therefore activity is calculated over a total of 460 sec. To ensure that initial velocity is assessed, only readings within the first 30 minutes of the reaction were analyzed. RFU/sec readings were converted to enzyme specific activity of pmol/min/μg using the conversion factor of 1227 RFU per μM AMC.
To generate the pH profile of cathepsin B activity with the substrates Z-Arg-Lys-AMC, Z-Glu-Lys-AMC, and Z-Phe-Arg-AMC, 60 μM of each substrate and 0.04 ng/ul of cathepsin B were assayed in citrate phosphate buffers ranging from pH 2.2 to 7.4 in increments of 0.4 pH units, including pH 7.2. […]

[8] = molecular target: T4, cathepsin B in human neuroblastoma cells (SHSY5Y) (Homo sapiens, UniProt P07858); assay: Neuroblastoma cells incubated with inhibitors, then cathepsin B assay; type: cell-based; conditions: cells incubated with 50 μM inhibitor for 6 hrs, washed, homogenate assayed with Z-Arg-Arg-AMC
T4 construct: endogenous in cells; host or cells: SH-SY5Y human neuroblastoma cells
Experimental: Cathepsin B in human neuroblastoma cells treated with inhibitors. Neuroblastoma cells (human SHSY5Y) were grown in media consisting of 50% MEMalpha, 50% F12-K, 10% heat-inactivated FBS at 37° C. in an atmosphere of 95% air and 5% CO2. Firstly, cell homogenates were prepared by collection of cells in 0.32 M sucrose and freeze-thawing. Secondly, cells were incubated with Z-Arg-Lys-AOMK or CA-074Me for 6 hours at 37° C., and washed 3 times in phosphate-buffered saline and homogenates were prepared in 0.32 M sucrose with freeze-thawing. CA-074Me is a methyl ester form of the active CA-074 selective inhibitor of cathepsin B (70); CA-074Me penetrates the cell and is converted by intracellular esterases to CA-074.
Cathepsin B activity in the homogenates were monitored with Z-Arg-Arg-AMC substrate (60 μM) with buffer conditions of 40 mM citrate-phosphate, pH 5.5, 5 mM DTT, 1 mM EDTA, 100 mM NaCl, and 1.2% DMSO, followed by incubation at 37° C. for 30 minutes and reading of AMC fluorescence. CA-074-senstive activity was monitored to indicate cathepsin B activity, since CA-074 is a selective inhibitor of this enzyme (70). Protein content was measured in homogenates with the DC protein assay kit. Cathepsin B specific activity was calculated as nmol AMC/μg/min, and reported as the mean±SD (with analyses for statistical significance, p<0.05 by student's t-test).

[9] = molecular target: cathepsin X (UniProt Q9UBR2 24-303, limits assumed); assay: cell-based or functional assay
[10] = molecular target: T5, cathepsin H (R&D #75116-CY-010) (human, UniProt P09668 116-335); assay: cell-based or functional assay
T5 sequence (looked up): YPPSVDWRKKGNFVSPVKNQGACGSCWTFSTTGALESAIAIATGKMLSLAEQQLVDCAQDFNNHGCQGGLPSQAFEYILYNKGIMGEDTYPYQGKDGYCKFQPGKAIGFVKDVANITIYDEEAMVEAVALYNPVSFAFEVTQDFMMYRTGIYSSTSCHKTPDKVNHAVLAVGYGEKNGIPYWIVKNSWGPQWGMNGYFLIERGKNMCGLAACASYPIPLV

[11] = molecular target: cathepsin L (R&D #952-CY-010) (human, UniProt P07711 114-333); assay: cell-based or functional assay
[12] = molecular target: T6, cathepsin V (R&D #1080-CY-010) (human, UniProt O60911 18-334); assay: cell-based or functional assay
T6 sequence (looked up): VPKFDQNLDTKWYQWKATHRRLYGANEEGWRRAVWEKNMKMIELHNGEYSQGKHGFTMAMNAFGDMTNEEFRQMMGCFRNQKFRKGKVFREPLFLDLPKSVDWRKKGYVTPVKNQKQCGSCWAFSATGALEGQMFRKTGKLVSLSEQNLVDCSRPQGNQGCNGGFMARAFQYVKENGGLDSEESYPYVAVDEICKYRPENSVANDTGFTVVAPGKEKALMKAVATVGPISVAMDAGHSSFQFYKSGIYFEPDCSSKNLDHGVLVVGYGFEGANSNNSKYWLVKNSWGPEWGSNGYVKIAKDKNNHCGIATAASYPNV

[13] = molecular target: T7, cathepsin K (Abcam #ab157067) (human, UniProt P43235 115-329, limits assumed); assay: cell-based or functional assay
T7 sequence (looked up): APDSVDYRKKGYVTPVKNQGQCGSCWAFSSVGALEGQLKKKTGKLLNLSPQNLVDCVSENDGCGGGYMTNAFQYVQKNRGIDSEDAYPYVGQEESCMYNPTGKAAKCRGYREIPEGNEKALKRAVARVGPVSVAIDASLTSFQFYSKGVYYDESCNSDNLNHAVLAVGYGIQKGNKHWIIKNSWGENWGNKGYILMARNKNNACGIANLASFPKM

[14] = molecular target: cathepsin C (R&D #1071-CY-010) (human, UniProt P53634 25-463); assay: cell-based or functional assay
[15] = molecular target: cathepsin S (R&D #1183-CY-010) (human, UniProt P25774 17-331); assay: cell-based or functional assay
Sequence of cathepsin S (R&D #1183-CY-010) (P25774 17-331 limits assumed): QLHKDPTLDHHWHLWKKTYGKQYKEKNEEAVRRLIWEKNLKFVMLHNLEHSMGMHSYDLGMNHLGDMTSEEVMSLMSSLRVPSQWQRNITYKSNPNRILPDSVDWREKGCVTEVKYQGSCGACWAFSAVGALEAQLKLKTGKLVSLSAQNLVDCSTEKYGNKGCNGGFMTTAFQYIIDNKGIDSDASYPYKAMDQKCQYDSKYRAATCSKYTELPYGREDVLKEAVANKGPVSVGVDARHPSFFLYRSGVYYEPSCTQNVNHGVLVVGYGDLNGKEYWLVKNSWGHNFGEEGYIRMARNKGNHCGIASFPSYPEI

Sequence of cathepsin C (R&D #1071-CY-010) (P53634 25-463 limits assumed): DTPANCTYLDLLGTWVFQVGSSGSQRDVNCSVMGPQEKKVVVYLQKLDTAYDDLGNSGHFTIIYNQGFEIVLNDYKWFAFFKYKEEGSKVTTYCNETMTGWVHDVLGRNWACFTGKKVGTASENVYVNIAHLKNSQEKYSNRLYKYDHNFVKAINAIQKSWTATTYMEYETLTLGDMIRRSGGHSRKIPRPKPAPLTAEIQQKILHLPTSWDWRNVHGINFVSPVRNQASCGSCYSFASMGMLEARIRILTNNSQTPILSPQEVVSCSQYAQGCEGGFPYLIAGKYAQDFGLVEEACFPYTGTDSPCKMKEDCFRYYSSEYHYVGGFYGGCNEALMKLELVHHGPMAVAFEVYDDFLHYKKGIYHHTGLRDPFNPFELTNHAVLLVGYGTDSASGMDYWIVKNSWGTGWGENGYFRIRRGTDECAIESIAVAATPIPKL
T2 sequence (P07711 114-333): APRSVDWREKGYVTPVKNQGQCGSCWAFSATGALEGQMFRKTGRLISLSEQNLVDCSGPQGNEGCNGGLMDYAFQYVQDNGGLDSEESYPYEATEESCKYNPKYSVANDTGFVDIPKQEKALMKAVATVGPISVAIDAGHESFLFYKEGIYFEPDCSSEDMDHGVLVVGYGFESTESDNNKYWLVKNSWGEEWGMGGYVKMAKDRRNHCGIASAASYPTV
Sequence of cathepsin L (R&D #952-CY-010) (P07711 114-333): as above
Sequence of cathepsin X (Q9UBR2 24-303 limits assumed): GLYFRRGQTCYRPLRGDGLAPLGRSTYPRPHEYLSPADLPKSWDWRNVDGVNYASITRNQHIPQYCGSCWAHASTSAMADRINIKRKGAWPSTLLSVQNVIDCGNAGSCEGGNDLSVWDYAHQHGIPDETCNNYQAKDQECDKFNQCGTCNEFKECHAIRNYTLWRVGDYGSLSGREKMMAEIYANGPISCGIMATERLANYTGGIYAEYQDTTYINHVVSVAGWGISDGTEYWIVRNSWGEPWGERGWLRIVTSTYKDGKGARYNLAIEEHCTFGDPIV

## Z-Glu-Lys-AOMK (peptide)
[1]
  IC50 of inhibition of cathepsin B activity (Z-Phe-Arg-AMC substrate, no pre-incubation), pH 4.6: 1.1 µM
  IC50 of inhibition of cathepsin B activity (Z-Phe-Arg-AMC substrate, no pre-incubation), pH 7.2: 320 nM
  IC50 of inhibition of enzyme activity, pH 4.6: 1.1 µM
  IC50 of inhibition of enzyme activity, pH 7.2: 320 nM
  fold greater potency (IC50) for cathepsin B than for cathepsin C, pH 7.2: 38 fold
[2]
  Kinact/KI: 8200 M⁻¹ s⁻¹
[3]
  Kinact/KI: 2000 M⁻¹ s⁻¹
[4]
  fold greater potency (KI) at pH 7.2 compared to pH 4.6: 3.5 fold

## Cc1cc(=O)oc2cc(NC(=O)[C@H](CCCCN)NC(=O)[C@H](CCCNC(=N)N)NC(=O)OCc3ccccc3)ccc12 [Z-Arg-Lys-AMC] (Cbz-Arg-Lys-{AMC})
[5]; pH 7.2 (data not shown)
  substrate activity for cathepsin V: no activity
[6]; pH 7.2 (data not shown)
  substrate activity for cathepsin L: no activity
[7]
  pH of maximal hydrolysis by cathepsin B: 7.8

## Cc1cc(=O)oc2cc(NC(=O)C(CCCN=C(N)N)NC(=O)C(Cc3ccccc3)NC(=O)OCc3ccccc3)ccc12 (stereo not drawn) [Z-Phe-Arg-AMC] (Cbz-Phe-Arg-{AMC}; configuration not given here)
[5]; pH 4.6
  substrate activity for cathepsin V: cleaved
[6]; pH 4.6
  substrate activity for cathepsin L: cleaved

## Z-Arg-Lys-AOMK (peptide)
[1]
  IC50 of inhibition of cathepsin B activity (Z-Phe-Arg-AMC substrate, no pre-incubation), pH 4.6: 1.5 µM
  IC50 of inhibition of cathepsin B activity (Z-Phe-Arg-AMC substrate, no pre-incubation), pH 7.2: 20 nM
  IC50 of inhibition of cathepsin B activity, pH 6.8 (data not shown): 22 nM
  IC50 of inhibition of enzyme activity, pH 4.6: 1.5 µM
  IC50 of inhibition of enzyme activity, pH 7.2: 20 nM
  fold greater potency (IC50) for cathepsin B than for cathepsin C, pH 7.2: 43 fold
  fold greater potency (IC50) for cathepsin B than for cathepsin S, pH 7.2: 110 fold
  fold greater potency (IC50) for cathepsin B than for cathepsin V, pH 7.2: 22 fold
  reduction of cathepsin B activity (Z-Phe-Arg-AMC substrate) by 64 nM inhibitor, pH 4.6: 5%
  reduction of cathepsin B activity (Z-Phe-Arg-AMC substrate) by 64 nM inhibitor, pH 7.2: 93%
[2]
  Kinact/KI: 110000 M⁻¹ s⁻¹
[3]
  Kinact/KI: 1800 M⁻¹ s⁻¹
[4]
  fold greater potency (KI) at pH 7.2 compared to pH 4.6: 115 fold

## Cc1cc(=O)oc2cc(NC(=O)[C@H](CCCCN)NC(=O)[C@H](CCC(=O)O)NC(=O)OCc3ccccc3)ccc12 [Z-Glu-Lys-AMC] (Cbz-Glu-Lys-{AMC})
[5]; pH 4.6
  substrate activity for cathepsin V: no activity
[6]; pH 4.6
  substrate activity for cathepsin L: no activity
[7]
  pH of maximal hydrolysis by cathepsin B: 4.6

## CCCNC(=O)[C@H]1O[C@@H]1C(=O)N[C@H](C(=O)N1CCC[C@H]1C(=O)OC)[C@@H](C)CC [CA-074Me, reference compound]
[8]
  inhibition of cellular cathepsin B activity: completely inhibited

## Cbz-Arg-Lys-{AOMK} [Z-Arg-Lys-AOMK]
[9]
  % inhibition of enzyme activity at 16,000 nM inhibitor, pH 4.6: 21%
  IC50 of inhibition of enzyme activity (MCA-Arg-Pro-Pro-Gly-Phe-Ser-Ala-Phe-Lys(Dnp)OH substrate), pH 4.6: > 16 µM
[10]
  % inhibition of enzyme activity at 16,000 nM inhibitor, pH 7.2: 29%
  IC50 of inhibition of enzyme activity (Arg-AMC substrate), pH 7.2: > 16 µM
[11]
  % inhibition of enzyme activity at 16,000 nM inhibitor, pH 4.6: 32%
  IC50 of inhibition of enzyme activity (Z-Phe-Arg-AMC substrate), pH 4.6: > 16 µM
[12]
  % inhibition of enzyme activity at 16,000 nM inhibitor, pH 4.6: 63%
  IC50 of inhibition of enzyme activity (Z-Phe-Arg-AMC substrate), pH 4.6: > 16 µM
  IC50 of inhibition of enzyme activity (Z-Phe-Arg-AMC substrate), pH 7.2: 440 nM
[13]
  % inhibition of enzyme activity at 16,000 nM inhibitor, pH 7.2: 31%
  IC50 of inhibition of enzyme activity (Z-Phe-Arg-AMC substrate), pH 7.2: > 16 µM
[14]
  % inhibition of enzyme activity at 16,000 nM inhibitor, pH 4.6: 6%
  IC50 of inhibition of enzyme activity (Gly-Arg-AMC substrate), pH 4.6: > 16 µM
  IC50 of inhibition of enzyme activity (Gly-Arg-AMC substrate), pH 7.2: 850 nM
[15]
  % inhibition of enzyme activity at 16,000 nM inhibitor, pH 4.6: 13%
  IC50 of inhibition of enzyme activity (Z-Phe-Arg-AMC substrate), pH 4.6: > 16 µM
  IC50 of inhibition of enzyme activity (Z-Phe-Arg-AMC substrate), pH 7.2: 2.2 µM

## Cbz-Glu-Lys-{AOMK} [Z-Glu-Lys-AOMK]
[11]
  % inhibition of enzyme activity at 16,000 nM inhibitor, pH 4.6: 23%
  IC50 of inhibition of enzyme activity (Z-Phe-Arg-AMC substrate), pH 4.6: > 16 µM
[12]
  % inhibition of enzyme activity at 16,000 nM inhibitor, pH 7.2: 10%
  IC50 of inhibition of enzyme activity (Z-Phe-Arg-AMC substrate), pH 4.6: 1.9 µM
  IC50 of inhibition of enzyme activity (Z-Phe-Arg-AMC substrate), pH 7.2: > 16 µM
[13]
  % inhibition of enzyme activity at 16,000 nM inhibitor, pH 4.6: 10%
  IC50 of inhibition of enzyme activity (Z-Phe-Arg-AMC substrate), pH 4.6: > 16 µM
[14]
  IC50 of inhibition of enzyme activity (Gly-Arg-AMC substrate), pH 4.6: 8.6 µM
  IC50 of inhibition of enzyme activity (Gly-Arg-AMC substrate), pH 7.2: 12 µM
[15]
  % inhibition of enzyme activity at 16,000 nM inhibitor, pH 4.6: 26%
  % inhibition of enzyme activity at 16,000 nM inhibitor, pH 7.2: 30%
  IC50 of inhibition of enzyme activity (Z-Phe-Arg-AMC substrate), pH 4.6: > 16 µM
  IC50 of inhibition of enzyme activity (Z-Phe-Arg-AMC substrate), pH 7.2: > 16 µM
